From patent US20050123977A1, “Assay and treatment” (Ludwig Institute for Cancer Research, priority 2003, published 2005) come the findings set out here.

The target in one experiment is T1, p53Arg72 (Homo sapiens, UniProt P04637, P72R).
T1 construct: expressed in transfected cells; host or cells: Saos-2 or H1299 cells
The experiment is described as follows: Transactivation assay (luciferase reporter), p53Arg72. The experiment is classed as cell-based. As to conditions: Saos-2 cells, Bax promoter, co-transfection. As to the method:
(§1) Saos-2 or H1299 cells (5×10^5) were plated 24 hours prior to transfection in 6 cm dishes. All transactivation assays contained 1 μg of reporter plasmid. 50 ng of p53Pro72 or p53Arg72, 4 μg of ASPP1 or ASPP2, 2 μg of iASPP expression plasmids were used as indicated. In FIG. 4C cells were also co-transfected with 3 μg of pSuper plasmid containing iASPP RNAi as indicated. Cells were lysed in Reporter Lysis Buffer 16-24 hours after transfection and assayed using the Luciferase Assay kit (Promega, Wis., USA). The fold activation of a particular reporter was determined by the activity of the transfected plasmid divided by the activity of vector alone.

For experiment [1], the target named is T2, p53Pro72 (Homo sapiens, UniProt P04637).
T2 construct: expressed in transfected cells; host or cells: Saos-2 or H1299 cells
Briefly: Transactivation assay (luciferase reporter), p53Pro72. To be noted: Saos-2 cells; for transcriptional activity of p53Pro72 on Bax promoter: co-transfection. It counts as cell-based. As to the method:
as §1
(In a reporter assay the amount or activity of a reporter protein is the signal.)

Another experiment relates to p53Pro72 and p53Arg72. As to conditions: RKO cells heterozygous for p53Pro72/p53Arg72. As to the method: For western blotting, cells were lysed in either NP40 lysis buffer or luciferase reporter lysis buffer. Between 15-100 μg of protein extract was loaded on SDS-PAGE gels. For immunoprecipitation, cells were lysed in NP40 lysis buffer and pre-cleared with protein G beads for 1 hour at 4° C. The protein concentration was determined and then 1-2 mg of the extract was incubated with antibody pre-bound to protein G beads for 4 hours or overnight at 4° C. The beads were washed twice in NP40 lysis buffer and twice in NET buffer. The IP beads were mixed with 5× sample buffer and loaded onto an SDS-PAGE gel. The gels were wet transferred on to Protran nitrocellulose membrane and the resulting blots were first incubated with primary antibody and subsequently with the appropriate secondary HRP conjugated antibody (Dako). The blot was exposed to hyperfilm following the use of ECL substrate solution (Amersham Life Science).
p53Pro72, p53Arg72, ASPP1, ASPP2 and iASPP were in vitro translated and labelled with ^35S -Methionine using the TNT T7 Quick coupled Transcription/Translation System (Promega). The lysates containing indicated proteins were incubated at 30° C. for 1 hour. The anti-ASPP1, ASPP2 or iASPP antibodies immobilised on protein G agarose beads were added to the binding reactions and incubated on a rotating wheel at 4° C. for 16 hours. The beads were then washed with PBS. The bound proteins were released in SDS gel sample buffer and analysed by 10% SDS-polyacrylamide gel electrophoresis (PAGE). Results were visualised using autoradiography for ^35S -Methionine labelled proteins. For immunoprecipitation using cell lysates, the expression of endogenous ASPP1, ASPP2, iASPP, p53Pro72 and p53Arg72 were detected by western blot using antibodies specific to these proteins derived from different species from that used in IP.

Experiment [2] deals with T2, p53Pro72. The experiment is described as follows: Flow cytometry apoptosis assay, p53Pro72. It counts as cell-based. As to the method: Cells (10^6) were plated 24-48 hours prior to transfection in 10 cm plates. All cells were transfected with 2 μg of a plasmid expressing CD20 as a transfection marker. Transfection consisted of 1 μg of human p53Pro72 or p53Arg72, 10 μg of ASPP1 or ASPP2, 4 μg of iASPP and 8 μg of pSuper plasmid containing RNAi of iASPP as indicated. 36 hours after the transfection, both attached and floating cells were harvested and analysed as described.

B1: ASPP2: human ASPP2 protein (SEQ ID NO: 8), expressed from CMV-driven plasmid; stimulates apoptotic function of p53 (protein, listed as Homo sapiens)
chain: MMPMFLTVYLSNNEQHFTEVPVTPETICRDVVDLCKEPGESDCHLAEVWCGSERPVADNERMFDVLQRFGSQRNEVRFFLRHERPPGRDIVSGPRSQDPSLKRNGVKVPGEYRRKENGVNSPRMDLTLAELQEMASRQQQQIEAQQQLLATKEQRLKFLKQQDQRQQQQVAEQEKLKRLKEIAENQEAKLKKVRALKGHVEQKRLSNGKLVEEIEQMNNLFQQKQRELVLAVSKVEELTRQLEMLKNGRIDSHHDNQSAVAELDRLYKELQLRNKLNQEQNAKLQQQRECLNKRNSEVAVMDKRVNELRDRLWKKKAALQQKENLPVSSDGNLPQQAASAPSRVAAVGPYIQSSTMPRMPSRPELLVKPALPDGSLVIQASEGPMKIQTLPNMRSGAASQTKGSKIHPVGPDWSPSNADLFPSQGSASVPQSTGNALDQVDDGEVPLREKEKKVRPFSMFDAVDQSNAPPSFGTLRKNQSSEDILRDAQVANKNVAKVPPPVPTKPKQINLPYFGQTNQPPSDIKPDGSSQQLSTVVPSMGTKPKPAGQQPRVLLSPSIPSVGQDQTLSPGSKQESPPAAAVRPFTPQPSKDTLLPPFRKPQTVAASSIYSMYTQQQAPGKNFQQAVQSALTKTHTRGPHFSSVYGKPVIAAAQNQQQHPENIYSNSQGKPGSPEPETEPVSSVQENHENERIPRPLSPTKLLPFLSNPYRNQSDADLEALRKKLSNAPRPLKKRSSITEPEGPNGPNIQKLLYQRTTIAAMETISVPSYPSKSASVTASSESPVEIQNPYLHVEPEKEVVSLVPESLSPEDVGNASTENSDMPAPSPGLDYEPEGVPDNSPNLQNNPEEPNPEAPHVLDVYLEEYPPYPPPPYPSGEPEGPGEDSVSMRPPEITGQVSLPPGKRTNLRKTGSERIAHGMRVKFNPLALLLDSSLEGEFDLVQRIIYEVDDPSLPNDEGITALHNAVCAGHTEIVKFLVQFGVNVNAADSDGWTPLHCAASCNNVQVCKFLVESGAAVFAMTYSDMQTAADKCEEMEEGYTQCSQFLYGVQEKMGIMNKGVIYALWDYEPQNDDELPMKEGDCMTIIHREDEDEIEWWWARLNDKEGYVPRNLLGLYPRIKPRQRSLA
As to B1, the “transactivation function of p53Arg72” value with p53Arg72 is listed as “very little effect”. Further, the “transcriptional activity of p53Pro72 on Bax promoter” value with p53Pro72 [1] is reported as “significantly enhanced”. For the same molecule, the “co-immunoprecipitation of p53Pro72 compared with p53Arg72” value in the experiment with p53Pro72 and p53Arg72 is recorded as “Selective binding”. In addition, the “apoptotic function of p53Pro72” value is on record as “enhanced” with p53Pro72 [2] (H1299 cells) and “selectively enhance” with p53Pro72 [2] (Saos-2 cells).

B2: ASPP1: human ASPP1 protein (SEQ ID NO: 7), V5-tagged, expressed from CMV-driven plasmid; stimulates apoptotic function of p53 (protein, listed as Homo sapiens)
chain: MMPMILTVFLSNNEQILTEVPITPETTCRDVVEFCKEPGEGSCHLAEVWRGNERPIPFDHMMYEHLQIWGPRREEVKFFLRHEDSPTENSEQGGRQTQEQRTQRNVINVPGDKRTEYGVGNPRVELTLSELQDMAARQQQQIENQQQMLVAKEQRLHFLKQQERRQQQSISENEKLQKLKERVEAQENKLKKIRAMRGQVDYSKIMNGNLSAEIERFSAMFQEKKQEVQTAILRVDQLSQQLEDLKKGKLNGFQSYNGKLTGPAAVELKRLYQELQIRNQLNQEQNSKLQQQKELLNKRNMEVAMMDKRISELRERLYGKKIQLNRVNGTSSPQSPLSTSGRVAAVGPYIQVPSAGSFPVLGDPIKPQSLSIASNAAHGRSKSANDGNWPTLKQNSSSSVKPVQVAGADWKDPSVEGSVKQGTVSSQPVPFSALGPTEKPGIEIGKVPPPIPGVGKQLPPSYGTYPSPTPLGPGSTSSLERRKEGSLPRPSAGLPSRQRPTLLPATGSTPQPGSSQQIQQRISVPPSPTYPPAGPPAFPAGDSKPELPLTVAIRPFLADKGSRPQSPRKGPQTVNSSSIYSMYLQQATPPKNYQPAAHSALNKSVKAVYGKPVLPSGSTSPSPLPFLHGSLSTGTPQPQPPSESTEKEPEQDGPAAPADGSTVESLPRPLSPTKLTPIVHSPLRYQSDADLEALRRKLANAPRPLKKRSSITEPEGPGGPNIQKLLYQRFNTLAGGMEGTPFYQPSPSQDFMGTLADVDNGNTNANGNLEELPPAQPTAPLPAEPAPSSDANDNELPSPEPEELICPQTTHQTAEPAEDNNNNVATVPTTEQIPSPVAEAPSPGEEQVPPAPLPPASHPPATSTNKRTNLKKPNSERTGHGLRVRFNPLALLLDASLEGEFDLVQRIIYEVEDPSKPNDEGITPLHNAVCAGHHHIVKFLLDFGVNVNAADSDGWTPLHCAASCNSVHLCKQLVESGAAIFASTISDIETAADKCEEMEEGYIQCSQFLYGVQEKLGVMNKGVAYALWDYEAQNSDELSFHEGDALTILRRKDESETEWWWARLGDREGYVPKNLLGLYPRIKPRQRTLA
modifications: V5 tag
notes: stimulates apoptotic function of p53
As for B2, the “transactivation function of p53Arg72” value in the experiment with p53Arg72 is “very little effect”. Also, the “transcriptional activity of p53Pro72 on Bax promoter” value with p53Pro72 [1] was “significantly enhanced”. In the experiment on p53Pro72 and p53Arg72, the “co-immunoprecipitation of p53Pro72 compared with p53Arg72” value was “to a lesser extent”. Moreover, the “apoptotic function of p53Pro72” value with p53Pro72 [2] (H1299 cells) is “enhanced”; in the experiment with p53Pro72 [2] (Saos-2 cells), “selectively enhance”.

B3: iASPP: human iASPP protein (SEQ ID NO: 4), expressed from plasmid; inhibits apoptotic function of p53 (protein, listed as Homo sapiens)
chain: MWMKDPVARPLSPTRLQPALPPEAQSVPELEEVARVLAEIPRPLKRRGSMEQAPAVALPPTHKKQYQQIISRLFHRHGGPGPGGRSQSCPPSLRDLRPGQGPLLLPHQLPFHRPAPSQSSPPEQPQSMEMRSVLRKAGSPRKARRARLNPLVLLLDAALTGELEVVQQAVKEMNDPSQPNEEGITALHNAICGANYSIVDFLITAGANVNSPDSHGWTPLHCAASCNDTVICMALVQHGAAIFATTLSDGATAFEKCDPYREGYADCATYLADVEQSMGLMNSGAVYALWDYSAEFGDELSFREGESVTVLRRDGPEETDWWWAALHGQEGYVPRNYFGLFPRVKPQRSK
With B3, in the experiment with p53Pro72 [1] (promoter not stated in text (FIG. 2C)), the “transactivation function of p53Pro72” value is “selectively inhibited”. Further, the “co-immunoprecipitation of p53Pro72 compared with p53Arg72” value with p53Pro72 and p53Arg72 was “clearly larger”. In the experiment with p53Pro72 [2] (Saos-2 cells), the “apoptotic function of p53Pro72” value is listed as “selectively inhibited”.
